Reference: patent publication US20030236190A1
No end group written: not given here.

What was measured:
[1] = biological target: Insulin receptor prepared according to Bass et al., 1996: soluble human insulin receptor-immunoglobulin heavy chain chimera (human) (UniProt P06213); test: phage ELISA, vs IGF-1R
[2] = biological target: Insulin receptor prepared according to Bass et al., 1996: soluble human insulin receptor-immunoglobulin heavy chain chimera (human) (UniProt P06213); test: phage ELISA vs milk
Soluble IGF-1R [3] = biological target: Soluble IGF-1R (UniProt P08069)
Soluble IGF-1R [4] = biological target: Soluble IGF-1R (UniProt P08069); test: phage ELISA; ratio over background for IGF-1R divided by that for IR
[5] = biological target: soluble human insulin mini-receptor (mIR) (human) (UniProt P06213); test: FP competition vs FITC-RP9, mIR
[6] = biological target: soluble human insulin receptor-immunoglobulin heavy chain chimera (sIR-Fc) (human), P06213; test: fluorescence polarization competition with FITC-RP9 for sIR-Fc; settings: remark: other sources report otherwise
[7] = biological target: T1, Soluble IGF-1R (R&D Systems, Cat. # 391-GR/CF); recombinant human IGF-1R (human), P08069; test: phage ELISA, vs IR
[8] = biological target: T2, Insulin receptor prepared according to Bass et al., 1996: soluble human insulin receptor-immunoglobulin heavy chain chimera (human), P06213; test: phage ELISA, vs IGF-1R
[9] = biological target: T2, Insulin receptor prepared according to …; test: phage ELISA vs milk
[10] = biological target: T1, Soluble IGF-1R (R&D Systems, Cat. # …); test: phage ELISA vs milk

B1: B6Hα-1-B5-IR (peptide)
peptide: CCTTEMVVMDARDDPFYHKLSELVTGG
What does the source list for B1?
IR/IGF-1R Comparison [1]: 0; Ratio over Background [2]: 1 fold

B2: 26L-3-G5-IR (peptide)
peptide: AETSAQVGWQRLWSVWPGDHWSTLDPFYHKLSELLRESGA
modifications: not fully specified (residue 27, N-terminus, C-terminus); printed as AETSAQVGWQRLWSVWPGDHWSTLDP9YHKLSELLRESGA
B2 was tested. Which ratio over background, IGF-1R (ratio over background) (Soluble IGF-1R [3]) did it give?
The ratio over background, IGF-1R (ratio over background) was 2.

What about the IGF-1R/IR ratio comparison (Soluble IGF-1R [4]) of the same binder?
The IGF-1R/IR ratio comparison was 1.4.

B3: H2C (peptide)
peptide: FHENFYDWFVQRVSKK
Which IC50 [5] does the source give for B3 here?
The IC50 was 0.77 µM.

B4: A6L-0-H3-IR (peptide)
peptide: YRGMLVLGRISGGAGKAASERPARIGQKVSAVNFYDWFV
Which IR/IGF-1R Comparison [1] does the source give for B4 here?
The IR/IGF-1R Comparison was 0.1.

And the Ratio over Background [2]?
Its Ratio over Background is 2 fold.

B5: C1 (peptide)
peptide: CWARPCGDAANFYDWFVQQAS
For B5, which IC50 [6] is on record?
Its IC50 is 0.052 µM.

B6: 20E2B-2-B11-IGFR (peptide)
peptide: VVTPVNFYRALEALVRGXRLG
modifications: not fully specified; printed as VVTPVNFYRALEALVRG.RLG; X: residue not identified in the source
For B6, which IGF-1R/IR Comparison [7] is on record?
The IGF-1R/IR Comparison was 9.4.

And the IR/IGF-1R Comparison [8]?
The IR/IGF-1R Comparison was 0.1.

What about the Ratio over Background [9] of the same binder?
Its Ratio over Background is 1.1 fold.

What about the Ratio over Background [10] of the same binder?
The Ratio over Background was 10.6 fold.

B7: H2CA-4-E9-IGFR (peptide)
peptide: RGAVAGFHDQFYDWFDRQVSRVHKFG
For B7, which IR/IGF-1R Comparison [1] is on record?
Its IR/IGF-1R Comparison is 0.3.

And the Ratio over Background [2]?
Its Ratio over Background is 1.9 fold.
